Substrate in data set [1]: Nc1ncnc2c1ncn2[C@@H]1O[C@H](COP(=O)(O)OP(=O)(O)OP(=O)(O)O)[C@@H](O)[C@H]1O
Description: purified protein. The data set is classed as biochemical, Homo sapiens. The note with it: Tris-HCl pH 8.0, MgCl2, 37 °C; for K0.5: half maximal estimate, biphasic response, ATPS + APSK combined activity (two ATP sites).

Substrate in data set [2]: O=S(=O)(O)O
Description: purified protein. The data set is classed as biochemical, Homo sapiens. To be noted: fixed ATP, Tris-HCl pH 8.0, MgCl2, 37 °C, labelled compound.

B1: COOH-terminal (aa 220-623) ATPS domain of hPAPSS1 (Homo sapiens) (protein)
chain: LQERDIVPVDASYEVKELYVPENKLHLAKTDAETLPALKINKVDMQWVQVLAEGWATPLNGFMREREYLQCLHFDCLLDGGVINLSVPIVLTATHEDKERLDGCTAFALMYEGRRVAILRNPEFFEHRKEERCARQWGTTCKNHPYIKMVMEQGDWLIGGDLQVLDRVYWNDGLDQYRLTPTELKQKFKDMNADAVFAFQLRNPVHNGHALLMQDTHKQLLERGYRRPVLLLHPLGGWTKDDDVPLMWRMKQHAAVLEEGVLNPETTVVAIFPSPMMYAGPTEVQWHCRARMVAGANFYIVGRDPAGMPHPETGKDLYEPSHGAKVLTMAPGLITLEIVPFRVAAYNKKKKRMDYYDSEHHEDFEFISGTRMRKLAREGQKPPEGFMAPKAWTVLTEYYKSLEK
notes: C-terminal ATP sulfurylase domain with linker, residues 220-623, APS kinase domain deleted; recombinant, purified
Turning to B1, the Michaelis-Menten constant (Km) in the data set “purified protein [1]” (fixed sulfate, ATP sulfurylase activity) stood at 2200 µM; in the data set “purified protein [2]” (ATP sulfurylase activity), 530 µM.

B2: hPAPSS1 (full length, residues 1-623) (Homo sapiens) (protein)
chain: MEIPGSLCKKVKLSNNAQNWGMQRATNVTYQAHHVSRNKRGQVVGTRGGFRGCTVWLTGLSGAGKTTVSMALEEYLVCHGIPCYTLDGDNIRQGLNKNLGFSPEDREENVRRIAEVAKLFADAGLVCITSFISPYTQDRNNARQIHEGASLPFFEVFVDAPLHVCEQRDVKGLYKKARAGEIKGFTGIDSEYEKPEAPELVLKTDSCDVNDCVQQVVELLQERDIVPVDASYEVKELYVPENKLHLAKTDAETLPALKINKVDMQWVQVLAEGWATPLNGFMREREYLQCLHFDCLLDGGVINLSVPIVLTATHEDKERLDGCTAFALMYEGRRVAILRNPEFFEHRKEERCARQWGTTCKNHPYIKMVMEQGDWLIGGDLQVLDRVYWNDGLDQYRLTPTELKQKFKDMNADAVFAFQLRNPVHNGHALLMQDTHKQLLERGYRRPVLLLHPLGGWTKDDDVPLMWRMKQHAAVLEEGVLNPETTVVAIFPSPMMYAGPTEVQWHCRARMVAGANFYIVGRDPAGMPHPETGKDLYEPSHGAKVLTMAPGLITLEIVPFRVAAYNKKKKRMDYYDSEHHEDFEFISGTRMRKLAREGQKPPEGFMAPKAWTVLTEYYKSLEK
notes: full length 1-623 (APSK + ATPS domains); E. coli BL21(DE3) pLys; Ni column and gel filtration
On to B2, for which, in the data set “purified protein [1]”, the K0.5 was 4.3 mM. Moreover, in the data set “purified protein [2]” (ATPS + APSK combined activity), the Km worked out at 330 µM.

B3: hPAPSS1 (full length, residues 1-623) (Homo sapiens; N426K) (protein)
chain: MEIPGSLCKKVKLSNNAQNWGMQRATNVTYQAHHVSRNKRGQVVGTRGGFRGCTVWLTGLSGAGKTTVSMALEEYLVCHGIPCYTLDGDNIRQGLNKNLGFSPEDREENVRRIAEVAKLFADAGLVCITSFISPYTQDRNNARQIHEGASLPFFEVFVDAPLHVCEQRDVKGLYKKARAGEIKGFTGIDSEYEKPEAPELVLKTDSCDVNDCVQQVVELLQERDIVPVDASYEVKELYVPENKLHLAKTDAETLPALKINKVDMQWVQVLAEGWATPLNGFMREREYLQCLHFDCLLDGGVINLSVPIVLTATHEDKERLDGCTAFALMYEGRRVAILRNPEFFEHRKEERCARQWGTTCKNHPYIKMVMEQGDWLIGGDLQVLDRVYWNDGLDQYRLTPTELKQKFKDMNADAVFAFQLRNPVHKGHALLMQDTHKQLLERGYRRPVLLLHPLGGWTKDDDVPLMWRMKQHAAVLEEGVLNPETTVVAIFPSPMMYAGPTEVQWHCRARMVAGANFYIVGRDPAGMPHPETGKDLYEPSHGAKVLTMAPGLITLEIVPFRVAAYNKKKKRMDYYDSEHHEDFEFISGTRMRKLAREGQKPPEGFMAPKAWTVLTEYYKSLEK
notes: as for B2
As to B3, in “purified protein [1]”, the K0.5 was 3.7 mM. For the same protein, the Km in “purified protein [2]” (ATPS + APSK combined activity) is 440 µM.

A word on the Km: it is the concentration of substrate that gives half-maximal velocity.

The values above are taken from PMC11697783, “Structure/function of ATP sulfurylase domain of human 3′-phosphoadenosine 5′-phosphosulfate synthase (hPAPSS)” (Biochemistry and Biophysics Reports, 2024).
